± gives the half width of the 95% confidence interval.

The nature of series [1]: folding stability dG unfold (combined trypsin and chymotrypsin); higher = more stable. The method in brief:
(§1)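 Mini-proteins designed to be under 80 residues and free of cysteine were carried in a PA-tagged cDNA display construct and digested with trypsin and with chymotrypsin. Each protease was applied at 11 threefold-diluted concentrations, alongside a no-protease condition, before sequencing. K50 came from Bayesian fitting of the sequencing counts, and unfolding free energy was obtained by comparing it with a sequence-predicted unfolded-state K50 and a shared folded-state K50, for each protease separately or for both together. Designs were retained only if their AlphaFold2 dimer inter-PAE exceeded 15.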

A short description of series [2]: folding stability dG unfold from chymotrypsin proteolysis; higher = more stable. In short, it runs like this:
as §1

Series [3] is described as follows: folding stability dG unfold from trypsin proteolysis; higher = more stable. The method in brief: as §1

As for “SWWYMVKIEIENGGKPIKIPVPVNDLDDFIDNAREAIPPDLADQLPPNMEVEVEVMPIPRVDPENGKPRPSA [r9_111_TrROS]”, the “folding stability dG unfold” value in series [1] came to 1.1 ± 0.15 kcal/mol; in series [2], 1.42 ± 0.15 kcal/mol; in series [3] it was 0.866 ± 0.054 kcal/mol.

For “SWYIIRIEIKIRNPKDGKSFDIEIMIHAPVEEAKEIAKEIASMFPGMRVEVKITEVMPMPPMTPEQLEKMSA [r9_421_TrROS]”, the “folding stability dG unfold” value in series [1] came to 3.25 ± 0.076 kcal/mol; in series [2] it was 3.721 ± 0.027 kcal/mol; in series [3], 2.23 ± 0.081 kcal/mol.

In the case of “SYLPESVPYDLVELTVVAKGKSPEYLEKKIKEAFKDVKIEPFYDPEKKLVTFKIVFPNKETAEKFKELVSSA [r9_764_TrMRF]”, the results for the “folding stability dG unfold” value in series [1], in series [2] and in series [3] were 2.16 ± 0.07 kcal/mol, 2.28 ± 0.041 kcal/mol and 1.93 ± 0.054 kcal/mol, respectively.

As for “TPLTTSTTTVPPSEIATPVTFNAPLSPDTSVTITTYDSATGTTSPVFSTTSASVTLTDLPNVSTATVVVVSS [r1_224_JUSTAS]”, the “folding stability dG unfold” value in series [1] is 0.459 ± 0.068 kcal/mol; in series [2], -0.255 ± 0.23 kcal/mol; in series [3] it was 0.702 ± 0.018 kcal/mol.

Consider “TTKTYTTPVIKKMTVTFDKTEGNEATLTITATLPDGTPVTLPFPLTLETGKLDPAVVEAAIKAAVATAIAQS [r1_124_JUSTAS]”, for which the “folding stability dG unfold” value in series [1] is 1.23 ± 0.2 kcal/mol; in series [2] it was 1.37 ± 0.12 kcal/mol; in series [3] it was 0.892 ± 0.07 kcal/mol.

“WRIRVEIEMYNPDGDPMEMEIQIPVDKLQELRQEGEPFTKEELVDEIVEIIRDMMPEHGMPIEIKIVEIVPS [r1_174_TrROS]”: the “folding stability dG unfold” value in series [1] came to 1.76 ± 0.2 kcal/mol; in series [2], 1.76 ± 0.074 kcal/mol; in series [3], 1.64 ± 0.051 kcal/mol.
